Source: US20220395553A1 (COHBAR, published 2022)
Square brackets hold non-standard residues; d marks the D form. Ends that are not written are not given here.

B1: SEQ ID NO: 78 (peptide)
peptide: LERYHHS[dA]RSSLRPYSK
B2: SEQ ID NO: 51 (peptide)
peptide: LERYHQSVRSSLRPYTK
B3: SEQ ID NO: 19 (peptide)
peptide: LERYHHSVRSSLRPY
B4: SEQ ID NO: 21 (peptide)
peptide: LERYHHSVRSSLR
B5: SEQ ID NO: 76 (peptide)
peptide: LERYHHS[dA]RTSLRPYTK
B6: SEQ ID NO: 43 (peptide)
peptide: LERYNHS[dA]RSSLRPYTK
B7: SEQ ID NO: 77 (peptide)
peptide: LERYHHS[dA]RSTLRPYTK
B8: SEQ ID NO: 49 (peptide)
peptide: LERYQHS[dA]RSSLRPYTK
B9: SEQ ID NO: 67 (peptide)
peptide: LRRYHHSVRSSLDPYTK
B10: SEQ ID NO: 52 (peptide)
peptide: LERYHQS[dA]RSSLRPYTK
B11: SEQ ID NO: 20 (peptide)
peptide: LERYHHSVRSSLRP
B12: SEQ ID NO: 81 (peptide)
peptide: LERYHHS[dA]RSSLRGYTK
B13: SEQ ID NO: 55 (peptide)
peptide: LERFHHS[dA]RSSLRPYTK
B14: SEQ ID NO: 36 (peptide)
peptide: LRDYHHSVRSSLRPYTK
B15: SEQ ID NO: 34 (peptide)
peptide: [dA]ERYHHSVRSSLRPYTK
B16: SEQ ID NO: 72 (peptide)
peptide: LRRYHHSVRSSLRPYSK
B17: SEQ ID NO: 71 (peptide)
peptide: LRRYHHSVRSTLRPYTK
B18: SEQ ID NO: 61 (peptide)
peptide: LERYHHS[dA]RSSLRPFTK
B19: SEQ ID NO: 35 (peptide)
peptide: [dA]ERYHHS[dA]RSSLRPYTK
B20: SEQ ID NO: 33 (peptide)
peptide: [dA]RRYHHSVRSSLRPYTK
B21: SEQ ID NO: 22 (peptide)
peptide: LERYHHSVRSSL
B22: SEQ ID NO: 23 (peptide)
peptide: LERYHHSVRSS
B23: SEQ ID NO: 38 (peptide)
peptide: LRRYHHTVRSSLRPYTK
B24: SEQ ID NO: 66 (peptide)
peptide: LRRYHHSVDSSLRPYTK
B25: SEQ ID NO: 50 (peptide)
peptide: LRRYHQSVRSSLRPYTK

Columns and labels:
[1] = target: CXCR4 on cultured U937 and Jurkat cells (human, UniProt P61073 1-352); test: cell-based or functional assay
[2] = target: ProLink tagged human CXCR4 (C2C12 CXCR4 β-Arrestin cell line) (human, UniProt P61073 1-352); test: cell-based or functional assay
[3] = target: T1, SNAP tagged-CXC4 receptor labeled with terbium (Tag-lite CXCR4 cells, HEK293) (UniProt P61073 1-352, SNAP tag labeled with terbium fluorescent dye); test: HTRF competition on Tag-lite CXCR4 HEK293 cells; competitor labelled CXCL12
T1 construct: whole, on cells; Bought frozen cells (PerkinElmer-CisBio), HEK293 transiently expressing the receptor; also called terbium labeled CXCR receptor
Protocol: Peptides were initially prepared as 1 mM stock in H₂O and tested at a final concentration of 400 nM. Following the manufacture's protocol, a frozen aliquot of Tag-lite CXCR4 cells was thawed and immediately seeded onto 384-well plates in TLB. Immediately following the addition of cells, 400 nM peptide (final concentration) in TLB was added to the appropriate well. […] The plates were covered in aluminum foil and left at room temperature for 3 hours. Following the 3 hour incubation period, the plates were removed from the incubator and fluorescence measured using a Cytation 1 plate reader using a HTRF filter cube ([…]; BioTek; Winooski, Vt.).

[4] = target: T1, SNAP tagged-CXC4 receptor labeled with …; test: as above; remark: listed apart in the source
Protocol: Peptides were initially prepared as 1 mM stock in H₂O. […] Following the manufacture's protocol, a frozen aliquot of Tag-lite CXCR4 cells was thawed and immediately seeded onto 384-well plates in TLB. […] The plates were covered in aluminum foil and left at room temperature for 3 hours. Following the 3 hour incubation period, the plates were removed from the incubator and fluorescence measured using a Cytation 1 plate reader using a HTRF filter cube ([…]; BioTek; Winooski, Vt.).

ProLink tagged human CXCR4 (C2C12 CXCR4 β-Arrestin cell line), sequence (P61073 whole entry): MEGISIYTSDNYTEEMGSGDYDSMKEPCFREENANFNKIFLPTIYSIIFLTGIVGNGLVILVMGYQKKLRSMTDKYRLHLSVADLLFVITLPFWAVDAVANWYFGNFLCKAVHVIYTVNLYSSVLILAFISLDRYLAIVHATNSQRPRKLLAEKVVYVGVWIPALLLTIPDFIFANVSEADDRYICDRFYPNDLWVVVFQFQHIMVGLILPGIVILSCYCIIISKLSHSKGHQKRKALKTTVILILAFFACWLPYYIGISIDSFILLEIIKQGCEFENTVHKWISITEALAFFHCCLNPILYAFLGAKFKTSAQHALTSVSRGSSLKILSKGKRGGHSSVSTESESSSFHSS
CXCR4 on cultured U937 and Jurkat cells, sequence (P61073 whole entry): as above
T1 sequence (P61073 whole entry): as above

Binder	Percent Inhibition of CXCR4/CXCL12 Induced p-MEK (100 nM Test Article) [1]	Percent Inhibition of CXCR4/CXCL12 Induced p-MEK (1 µM Test Article) [1]	IC50 for Inhibition of CXCR4 Activation (β-Arrestin recruitment) [2]	Percent Inhibition of CXCR4/CXCL12 Binding (400 nM peptide) [3]	IC50 [4]
B1	29%	46%	12 nM	72%	–
B2	–	–	134 nM	-2%	–
B3	–	–	19 nM	44%	–
B4	–	–	16 nM	20%	–
B5	5%	44%	6 nM	75%	–
B6	5%	40%	14 nM	53%	–
B7	7%	68%	4 nM	77%	–
B8	–	–	66 nM	20%	–
B9	-8%	42%	14 nM	3%	380 nM
B10	–	–	121 nM	-2%	–
B11	–	–	37 nM	37%	–
B12	-16%	20%	3 nM	81%	23 nM
B13	16%	72%	4 nM	56%	31 nM
B14	22%	-5%	> 1000 nM	-11%	5990 nM
B15	-1%	2%	> 1000 nM	-17%	4540 nM
B16	8%	86%	5 nM	6%	589 nM
B17	56%	94%	3 nM	29%	133 nM
B18	15%	46%	8 nM	54%	–
B19	-7%	-6%	291 nM	-13%	6310 nM
B20	7%	42%	7 nM	77%	42 nM
B21	–	–	17 nM	14%	–
B22	–	–	28 nM	23%	–
B23	51%	96%	3 nM	12%	175 nM
B24	-7%	13%	27 nM	-5%	563 nM
B25	–	–	121 nM	-5%	–
